Assay results reported in the supplement of paper PMC9170038.

Tests used:
MS2 coat protein [1] = experiment: apparent KD of MS2 coat protein, switch OFF state (with FMN for OFF switches, without FMN for ON switches); designed switch direction (-1 OFF switch, 1 ON switch): -1; higher = weaker reporter binding; conditions: FMN input: 0 or 200 uM; Eterna round: R93 (includes R88 designs)
Summary of the method: (§1)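 Designed RNA switches were transcribed on-chip from Illumina sequencing clusters. They were then titrated with SNAP-549-labelled MS2 coat protein (twofold steps, 0.7 or 1.5 nM to 3 µM; 0.8–1.5 h to 10–20 min per step) in 100 mM Tris-HCl pH 7.5, 80 mM KCl, 4 mM MgCl2, without or with constant ligand. Apparent KD is the per-design median of normalised cluster binding-curve fits.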

MS2 coat protein [2] = experiment: apparent KD of MS2 coat protein, switch ON state; designed switch direction (-1 OFF switch, 1 ON switch): -1; higher = weaker reporter binding; conditions: FMN input: 0 or 200 uM; Eterna round: R93 (includes R88 designs)
Summary of the method: as §1

| Sequence | apparent KD of MS2 coat protein (MS2 coat protein [1]) | apparent KD of MS2 coat protein (MS2 coat protein [2]) |
| --- | --- | --- |
| ACUUAGACAGGAUAUACGUGAGUGGAAAAAGUGUUUCCACUACAUGAGGAUCACCCAUGUAGAAGGGUCUAAGA [Ex2 Design 181: Random 6B] | 0.0823 µM | 0.0488 µM |
| GAAACUAGAGGAUAUACGAACAUGUCAAAAGACGUGAAGGGACAUGAGGAUCACCCAUGUAGAAGGCUAGAAAG [Mat - Exclusion 2 - JL mod - D100] | 0.0351 µM | 0.0395 µM |
| GCUGUCCUAGGAUAUACAUGAGGAUCACCCAUGUGAGAGAAAAAAGUGAGAAAGAAAAGUAGAAGGAGGGUAGG [salish99-ex3-104] | 0.0444 µM | 0.0304 µM |
| AAAAAACAUGAGGAUCACCCAUGUAAGGAUAUGCAAAAGAAAAGAAAAGAAAGAAGAAGCAGAAGGUACAAGAA [Userkaf] | 0.0312 µM | 0.035 µM |
| AAAAAGGCAGGAUAUACGAACAUGUCGAAAGACGUGAAGGGACAUGAGGAUCACCCAUGUAGAAGGGUCAAGAA [Mat - Exclusion 2 - JL mod - D76] | 0.0919 µM | 0.0908 µM |
| UAUAGACAUGAGGAUCACCCAUGUGAGGAUAUCAGUAACUACAAAACAUCACAUACAAUGAGAAGGCACAGAAA [JR_Exc001_Sub014] | 0.0498 µM | 0.04 µM |
| AAGAAGCAAGGAUAUACAUGAGGAUCACCCAUGUAAAAGAAAGAGAAGGGAAAGAAAAGUAGAAGGUGCGAAAA [Ruby 71] | 0.0237 µM | 0.0202 µM |
| AGAAAACAUGAGGAUCACCCAUGUCAGGAUAUCGAUGUCCAAAAAAAAGUGCGGGACUCGAGAAGGGACUUGGG [Mod of Erbelaed v.2 (favor state 2,lowered kcal by 2.7)] | 0.0246 µM | 0.0272 µM |
| CUCUUGUGAGGAUAUUCAAGAAAAGAAGAGAAAGAAAAGAAGAAGAAGGCACAUGAGGAUCACCCAUGUAAGAA [EteRNA is fun!] | 0.0308 µM | 0.025 µM |
| AAAUUAGGAGGAUAUACAUGAGGAUCACCCAUGUGACGAUGUUACUGCAUGAAGUCAAGUAGAAGGUCUAAGAA [Cearar] | 0.0442 µM | 0.0317 µM |
| AAACAACAUGAGGAUCACCCAUGUCAGGAUAUGAACGAAAAUAAAUAAAAAUAAAAGUUCAGAAGGGACGAAAA [66%, Wbt, 16] | 0.0497 µM | 0.0316 µM |
| AACUGGGCAGGAUAUACAUGAGGAUCACCCAUGUAAAGAAAAGAAAGAUCCGAGGAAAGUAGAAGGGCCUGGAA [Variant 4 of Mod 1 of Ex3 sub 3, by Tesla's Dusciple Round 1] | 0.0913 µM | 0.0556 µM |
| UCCAGACAUGAGGAUCACCCAUGUCAGGAUAUCUAGAAAACCUCAUGUAAAAAAAACUAGAGAAGGGAUAUGAA [Design 96: Pseudoknot F] | 0.0157 µM | 0.0196 µM |
| AAAAAGAGAGGAUAUACAUGAGGAUCACCCAUGUGACAUUAAAUAAAUAAAAUAAAAUGUAGAAGGCUCAAAAA [65%, Moding Exclusion3-cac2, 22] | 0.171 µM | 0.0386 µM |
| CUCAAGUAAGGAUAUCAAAGAAAAGAAGAGAAAGAAAAGAAUGAGAAGGUACAUGAGGAUCACCCAUGUAAGAA [EteRNA is fun!] | 0.023 µM | 0.0352 µM |
| UCCACACAUGAGGAUCACCCAUGUGAGGAUAUCUAGAAAACCUCAUGUAAAAAAAUCUAGAGAAGGCAUAUGAA [Design 91: Pseudoknot A] | 0.0186 µM | 0.0241 µM |
| AAUAAAGCAGGAUAUACUAAAGAAAUGAAAAGAAAUAAAGAACAUGAGGAUCACCCAUGUAGAAGGGCUAAUAA [Semqen] | 0.0184 µM | 0.0428 µM |
| GUGUACAGAGGAUAUACAUAAGCAUGGAAACAUGCAACUUCACAUGAGGAUCACCCAUGUAGAAGGCUGUACAC [Ex2: 729] | 0.0137 µM | 0.0121 µM |
| AAAAAACAUGAGGAUCACCCAUGUAAGGAUAUGCUAUGGAAAAUAAAAAUAAAACAUAGCAGAAGGUACACCAA [Amethyst 81] | 0.0273 µM | 0.0189 µM |
| AAAAAGUCAGGAUAUACGUAAGUGCGAAAGCACAAAUGGAAACAUGAGGAUCACCCAUGUAGAAGGGACAAGAA [JL In the Red 02 (Mod)] | 0.0236 µM | 0.0367 µM |
| AAAAAGGCAGGAUAUGCAUACACACGAAAAAAAACGCUGGGACAUGAGGAUCACCCAUGUAGAAGGGCCAAAAA [Dora Explored 10 - Jieux - Exclusion 2] | 0.0386 µM | 0.0572 µM |
| AAAAGCUCAGGAUAUACGGUCUGUUGUUGAGAAAUAUCGAAACAUGAGGAUCACCCAUGUAGAAGGGAGCGAAA [Exclusion2-cac2] | 0.269 µM | 0.108 µM |
